Data on 15 molecules can be found in US20220177886, “[…] AGAINST CLOSTRIDIUM […], COMPOSITIONS COMPRISING […] AGAINST CLOSTRIDIUM […] AND METHODS OF USING THE SAME” (Biovector, Inc., published 2022).

Some results are limits rather than exact numbers.

Data set [1] deals with CotE (rCotE LS25, N281-F712) (Clostridium difficile). The experiment in a line: SPR. Conditions: tags: His-tagged (Ni-NTA). How it is done: (§1) For CotE D2, CotE H2 and CotEC chitinase, aptamers were spotted on a gold surface at a concentration of 5 μM in PBS at a volume of approximately 10 nL in triplicate. Negative aptamers of the same length as the positive aptamers were spotted in the same manner, also in triplicate. Protein was then injected over the chip at a volume of 200 μL, with a flow rate of 50 μL/min in a Horiba (OpenPlex) surface plasmon resonance imaging (SPRi) instrument. Resonance due to binding was obtained by subtracting total resonance on the negative sequences from total resonance on the positive sequences. Disassociation values were computed with the following equation: dx/dt˜−kd*x, wherein dx/dt is the derivative of resonance values as a function of time and x is the resonance value for any given time point. Association values were computed with the following equation: dx/dt˜ka*c*Rmax−(ka*c+kd)*x, where x is the resonance due to binding at specific time points, c is the concentration of injectant, and Rmax is the maximum resonance observed.
(§2) Surface plasmon resonance imaging (SPRi) analysis of binding was performed with the various aptamers immobilized on a surface while the protein was flowed over at various concentrations.

In data set [2] the target is CotEC chitinase (rCotEC, AB45, aa381-712 of CotE) (Clostridium difficile). The experiment in a line: SPR. As to conditions: tags: His-tagged (Ni-NTA). On the procedure: as §1, §2
In data set [3] the target is T1, CotA-His6 (Clostridium difficile, UniProt Q186G8 SEQ:1-305).
T1 sequence: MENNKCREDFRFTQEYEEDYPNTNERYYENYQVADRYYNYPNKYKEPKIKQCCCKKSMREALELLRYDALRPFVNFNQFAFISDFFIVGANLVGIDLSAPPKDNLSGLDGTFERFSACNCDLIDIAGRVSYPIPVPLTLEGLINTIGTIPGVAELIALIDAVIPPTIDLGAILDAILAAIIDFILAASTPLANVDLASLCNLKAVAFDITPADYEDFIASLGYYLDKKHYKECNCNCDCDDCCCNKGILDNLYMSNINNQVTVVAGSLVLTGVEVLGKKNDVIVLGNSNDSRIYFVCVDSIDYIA
The experiment in a line: SPR; 7.82E-08; protein immobilized. As to conditions: tags: His6; optimized potential G-quartet. On the procedure: (§3) For CotA C1, the protein was immobilized on a hydrogel chip with EDC-mediated conjugation between primary amines on the protein (side chains on residues) and carboxylic acid groups on the surface of the chip. A protein of similar size was immobilized in the same manner as a negative control. […] For CdeC D1, the protein was received as aggregated, insoluble balls of protein. The binding assay was performed by incubating fluorescently labeled aptamers (FAM) with the protein, and then spinning the tubes down in a microcentrifuge to remove unbound. The pellet was resuspended in selection buffer and spun down again. Bound aptamers were eluted by adding 6 M urea, and spinning again, retaining the supernatant. The aptamers were cleaned up with PCR cleanup columns and the fluorescence was read on a Tecan Sapphire II fluorometer. Excitation was at 497 nm, and emission was at 515 nm. The amount of fluorescence measured in the eluant was divided by the total amount of fluorescence of all fractions.

A further data set has as its target CdeM (Clostridium difficile). The experiment in a line: pulldown. Conditions: tags: His-tagged (Ni-NTA). How it is done: (§4) The binding assay was performed by incubating fluorescently labeled aptamers (FAM) with the protein, and then spinning the tubes down in a microcentrifuge to remove unbound. The pellet was resuspended in selection buffer and spun down again. Bound aptamers were eluted by adding 6 M urea, and spinning again, retaining the supernatant. The aptamers were cleaned up with PCR cleanup columns and the fluorescence was read on a Tecan Sapphire II fluorometer. Excitation was at 497 nm, and emission was at 515 nm. The amount of fluorescence measured in the eluant was divided by the total amount of fluorescence of all fractions.
(§5) D1 CdeC: The original aptamer sequence was SEQ ID NO: 6, which binds to the CdeC protein from C. difficile. […] Two aptamers, D1.1 (SEQ ID NO: 38) and D1.2 (SEQ ID NO: 39), were designed to stabilize the structure observed in the analysis of the original sequence (FIG. 11). The CdeC protein self-aggregates in aqueous solutions making surface plasmon resonance analysis difficult. The protein forms large aggregates that are insoluble. The protein aggregates were combined as suspensions with the aptamers in solutions, allowed to incubate at room temperature for 15 min, and then spun down in a microcentrifuge to remove unbound aptamer. The complexes were washed with the appropriate selection buffer (50 mM Tris pH 7.6, 2.5 mM MgCl₂, 2.5 mM CaCl₂, 85 mM KOAc, 0.01% Tween 20, 0.01% BSA) once and the spin process was repeated. Finally, the bound aptamer was eluted from the protein structures with the addition of 6M urea. The protein aggregates were spun again, and this time the supernatant containing the eluted aptamers was retained. The aptamers were synthesized with a FAM label on the 5′ end for this analysis.
(§6) The CdeM protein is similar to the CdeC protein in that it forms aggregated balls when purified. An amount of protein equivalent to 1 E8 particles with 1 μM of each of the Em2, Em2.1 and Em2.2 aptamers in a total volume of 50 μL in the CdeM buffer was used. The mixture was allowed to incubate for 15 min at room temperature, then centrifuged. The supernatant was removed, and the pellet resuspended in CdeM buffer. This was centrifuged again and the wash process repeated once more.

The target in a further data set is HIV-1 p24 capsid protein (Human immunodeficiency virus 1, UniProt P04591 P04591:133-363). The experiment in a line: negative control protein; only aspecific fluorescence recovery, graphene oxide assay. As to conditions: tags: E. coli derived; RayBiotech 212-10004; label: 5'-FAM. On the procedure:
Once the quenched signal was stabilized, a fixed concentration of the target protein was added to the aptamer-GO mix (5 nM aptamer+0.5 ng/μL GO), and the recovery in quenched signal was recorded over time.
As negative control, a non-target protein at the same concentration (HIV cap protein P24) was added to the aptamer-GO mix.
Using 0.005% PEG in the buffer system, and 5 nM Fam-H2.1.2 with 0.5 ng/μL GO, the recovery of quenched signal was recorded after adding 50 nM of target protein (CotE) and 50 nM negative control protein (P24).

For the next data set, the target named is CdeC (Clostridium difficile). The experiment in a line: pulldown. As to conditions: tags: His-tagged (Ni-NTA). How it is done:
as §4, §5, §6

In data set [4] the target is T1, CotA-His6. The experiment in a line: SPR; 5.21E-08; protein immobilized. Conditions: tags: His6. On the procedure:
as §3

The target in data set [5] is T1, CotA-His6. The experiment in a line: SPR; 1.84E-08; protein immobilized. As to conditions: tags: His6. On the procedure:
as §3

AATGGGTGGGAGGGATGGGTACTA (ssDNA) [CotE H2.2]: the Kd in data set [1] is greater than 250 nM.

B1: CotEC Chitinase D11.1 (ssDNA)
DNA: AACTGCCTGGTAAATCGATGACCGCTGCCTCGCCTGAGTAATCATCGTACTATCCACAGGTC
Regarding B1, the Kd in data set [2] was 295 nM.

B2: CotE H2.1.1 (ssDNA)
DNA: CTTGACCTTTGGAATGGGTAGGGAGGGAGGGATACTATCCACAGGTCAACC
On to B2, for which, in data set [1], the Kd is greater than 250 nM.

In the data set with CotA-His6 [3], ACCCGTGGGACTGGGTCGGGTCGGG (ssDNA) [CotA C1.3] displayed a Kd of 78.2 nM.

B3: CotE D2.1 (ssDNA)
DNA: ACTACTCAATGCTCGACATTTCCGCCCCGACGGCCCTCCTAGTGAGGGGAGAGTAGA
On to B3, for which, in data set [1], binding was put at a Kd of 34.1 nM.

B4: CdeM E2/Em2 (ssDNA)
DNA: CCAGTGTAGACTACTCAATGCCTTCCATTCACCTACCGAGCTAAGCGTTCGACTTAGGTCTGTACTATCCACAGGTCAACC
B4: the binding result with CdeM is given as “binds”.

Take CTTGACCTTTGGAATGGGTGGGAGGGATGGGTACTATCCACAGGTCAACC (ssDNA) [CotE H2.1]: in data set [1], the affinity, expressed as Kd, was 17.5 nM.

Regarding CTTGACCTTTGGAATGGGTGGGAGGGAGGGTATCCACAGGTCAACC (ssDNA) [FAM-CotE H2.1.2], the binding result with HIV-1 p24 capsid protein is listed as “no binding”.

Molecule CTTGACCTTTGGAATGGGTGGGAGGGAGGGTATCCACAGGTCAACC (ssDNA) [CotE H2.1.2] returned a Kd in data set [1] of 7.52 nM.

B5: CdeC D1 (ssDNA)
DNA: CCAGTGTAGACTACTCAATGCCGTGGACTGGTCGGGTTTGGATTCGGCAGATGAATCAGTAGTACTATCCACAGGTCAACC
Consider B5, for which, in the data set with CdeC, the binding result is listed as “binds”.

B6: CotE D2.2 (ssDNA)
DNA: ACTACTCAATGCTCGACATTTCCGCCCCGACGGCCCTCCTAGTGATGGGGAGAGTAGA
The molecule B6 came in with a Kd in data set [1] of 207 nM.

B7: CdeC D1.2 (ssDNA)
DNA: ACTACTCAATGCCGTGGACTGGTCGGGTTTGGAATCGGCAGATGAATCAGTAGTAAA
In the case of B7, the binding result in the data set with CdeC was “binds”.

B8: CdeM Em2.1 (ssDNA)
DNA: CTCAATGCCTTCCATTCACCTACCGAGCTAAGCGTTCGACTTAGGTCTGTACT
As to B8, in the data set with CdeM, the binding result is reported as “binds”.

ACTCAAGGCCGTGGACTGGTCGGGTTTGGAT (ssDNA) [CotA C1.2] yielded a Kd with CotA-His6 [4] of 52.1 nM.

ACTCAAGGCCGTGGACTGGTCGGGTTTGGATTCGGCAGATGAATCACT (ssDNA) [CotA C1.1] yielded a Kd in the data set with CotA-His6 [5] of 18.4 nM.
